# Measurements published in the supplement of paper PMC12636428.
# Tested on: Saccharomyces cerevisiae
# Test: transcriptional activation domain activity (GFP:mCherry ratio, weighted mean of sorted bins, harmonized to initial dataset scale) (arbitrary fluorescence ratio units); higher = stronger transcriptional activation
# Conditions: beta-estradiol 1 µM; induction time 4 h
# How it was run: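 Barcoded protein tiles fused to an estradiol-inducible synthetic transcription factor were integrated at the yeast URA3 locus, in diploids carrying a GFP reporter. Cultures were diluted 1:5 into SC with 1 uM beta-estradiol, held 4 hours at 30 °C, sorted into 8 bins by GFP:mCherry ratio, and barcodes sequenced. Tiles under 50 reads were discarded. Activation activity is the read-weighted mean of bin median fluorescence, averaged across barcodes, then linearly mapped onto the initial dataset scale.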
sequence,measurement,value
MGLLVIMEVVFCVINLDALFFFLLSLLLLFLTFFSFFRIMMEFIVFLHVSFYF,transcriptional activation domain activity,61400
FQLWKSLNCAYSSVQVTSQGFSIGILFWTLLEYVLHRFLFHLDKLLPDHPIAL,transcriptional activation domain activity,63900
SPRPSYILNAYLFISLLFDIVVLRTVWIALPSFQPVRIVLTSSFALKTIILFL,transcriptional activation domain activity,54000
IYAYRESWGIDGAVFCKSWMLYWLLMDIHWQVMETLIACYIPMQFSPFFVFPW,transcriptional activation domain activity,61700
GASTPVTTGGKRKSDGGAGGSAKKERKTPAAKKDKEEKAPRGKANGAKATAAS,transcriptional activation domain activity,22000
PTLLVALLALLIPHILIFIAKKINTIMTLSALHDRLMIRYYKFLVINVLVFFC,transcriptional activation domain activity,39300
MWTVLVGFIRGFLLLLWHLAYPFHFFLYFQLILSSHRLEWLISLFVDAMTGIA,transcriptional activation domain activity,33400
EEAFVAINLRNLLTFGLTYFINDWILDDGVLFVFCILGMLFLVVCLMTIPLWI,transcriptional activation domain activity,29000
DEDPAKKGKKKASEPAATKVKAARGRKSKAAATEGSEAGPSKPPAKGRGKKAA,transcriptional activation domain activity,15800
VPLVSNSGIVCYDSKIMHAFLSGLLFLQGLMILWFIMIFKLVVRVLLGENAED,transcriptional activation domain activity,43900
TQAGPSTGGGVFGQPSQPSTSTNAFGGGNGLFGSKPTTGFGTATTPAAGVPAP,transcriptional activation domain activity,53600
MIKRLRWRRKIERNLPEFRLIPFLQRLLWLLLLLQFLLHLLHPPILCLHRLRY,transcriptional activation domain activity,50700
PNSTGDDPSRLRRAHRKSPGGCQSCKRRRVKCDEKVSCSNCRRRREHCHAGQQ,transcriptional activation domain activity,56900
KARQDKEPAMTQKDLATKINEKPSVINDYESGRAIPNQQVLGKLERALGVKLR,transcriptional activation domain activity,40000
GGKEEGGEETGERATKQQKTTPQESNKGSQGGNNNQRQGGGRNRHGRNRNGGG,transcriptional activation domain activity,30400
MRTGSNFVLFAFFCLVLMFTLTFILVFVCCASVGGILYPFRFLLSFVWILVSL,transcriptional activation domain activity,28200
NVLYSRLSILSSLITLSWFLTAHILEYTSIHTCRFSSPHIWWLTFGILCIMYL,transcriptional activation domain activity,51600
GQRPFGQVLNFFSCFLFIAFSCCHGPSLVNLIVWAAFFAQSTLFLIYLLRCIC,transcriptional activation domain activity,43800
MADFVSIWLVVVVDYHFYIYIVFAREQLFRHFCLVSSALAVGLSLFWLMLCFG,transcriptional activation domain activity,68200
TPLLLFFWCLCWFLSRSWYVYCFCYLNDWYNKVMMLWNLFHHHRFLLLYTRGL,transcriptional activation domain activity,35200
KDLNVVEGWEHQGVLRAAANTVKSVRMKESSTGGSQEKVYLKLVESTGHTLQG,transcriptional activation domain activity,21200
MDDTDSSAAGGARWIVVSTGGRAQSPEDEAGLRRVKGACRARQNKSKNAILIH,transcriptional activation domain activity,47100
MGKGGYGEQRGGGRGGFRGGRGGGRGGFGGGGFNQGPPSEVVVVGAFVSACEG,transcriptional activation domain activity,56800
MSRCNSSMFMSMFDSLGLFLFVIFIFLFFELHSFWWDLFSLFFVFVWFNFSIS,transcriptional activation domain activity,41400
ARFNLYLLSWLHVLSAKSASLGSSKAWWIRPAEIAMMSCYWYIFGYLLLWCTL,transcriptional activation domain activity,65800
MSSVAAAESKPEKKQKKDKSSKSEKKRLREDDAADAERKHKKSKSLASSEVAA,transcriptional activation domain activity,15100
PFRIGRIVAWISYGIHQVGQWGILAKVQRAKEEWSNTYRWWNWSMVYLNGFML,transcriptional activation domain activity,59700
FKLNTVTNLNEIDFTNIFTKSPHPHSGSTHPRQVFDQLDDCSSILFSPLTTNT,transcriptional activation domain activity,67700
NISTSVYVLLVCFHPLFLLLLLLLLLLLLLYRFVFAFFFISFFFFFLLLLLLL,transcriptional activation domain activity,25000
EKRGAAKRADRSRSRSRGRSRGAKDVARRRRRNSSADSHEAREHRRQGKRGRS,transcriptional activation domain activity,44700
KAMGLLDSARIVSWHVSYSLVHLPSWISFAIIYKVRLFVKTNILILLVVHVLF,transcriptional activation domain activity,41600
GSEIVDGDEESSPDGVRIKAESGSSAPVATSSALPPQGGYIGRLNVRKSGKIE,transcriptional activation domain activity,29800
NAFGAYSTDPSNIAEGLNTVGFRSGFAFFFVSMGIMCLIYLVCSLRTNVCFFM,transcriptional activation domain activity,26100
YQWVNYDLDTICMNFWTLKFLPDELPPIKHFSVVANDCKLFMYNVMGIIRFMS,transcriptional activation domain activity,82700
KSKKKRRSKRKPKNQKKKTTGKDAQEHLDDEQTRNLEDGQDDKKDEQDDDNKK,transcriptional activation domain activity,31400
SMRDSASDQETSWELQMFKTENVPESTTLPAVDNNNLFDAVASPLADPLCDDI,transcriptional activation domain activity,53300
RDGMRQGTHSTKGRADVRGSTRKAAPQKGRGRARMGSLRAPHIRGGGIAFGPK,transcriptional activation domain activity,24000
DSDEEDESELETDSESETGGIPIHESLSGAKSEDADKNERTIFIGNITVTAVQ,transcriptional activation domain activity,46400
MATRHVSAANNANKPRACLTCRTSKHKCDGNDRSTAPCSRCLRTGKSCIWPAK,transcriptional activation domain activity,33800
MILWNWILEFHSQTSFTLLLFILFHFIFFAYVPLLTSCYSHLFSFSFSTVSFI,transcriptional activation domain activity,46900
AKDGEEEKEKPKRGRKRKEAPAAEGEAEGEAADDAEPPAKKTKPASKAAPASK,transcriptional activation domain activity,23100
ELLCIDRETGETRFVEPKVPDGISLRNFGIQVVSSCVLLLLVSLRPPHVLCAC,transcriptional activation domain activity,53600
MLTEVLEYCYVHGKKAYVLFNILQHVLDCHDYISFTHQLVLVMKYAKYQYVIA,transcriptional activation domain activity,55100
GKISKDYHHVPSLASISSLQSSQSLDQNFSIPQSPPLSSMSFNFLTGNINETN,transcriptional activation domain activity,43600
MCHLTLLSLCFCSVASLLLSLFPLSLCLPFFILFIPPLFFLPHHIPSSFSFLV,transcriptional activation domain activity,59600
LLFVTDWALVGLGRFSESCIFFFLFSLWYNFCLHRFFISPTLYSSLTWHCVTS,transcriptional activation domain activity,42800
FLHCEPPTLLRLLGFFLCLVFSLYFTLSFPFFGPMLLLIRFSLGLPLPLVLMG,transcriptional activation domain activity,58300
DATPAAPANGNDGFHEVQHRGRGRGGFQGEGRGGGGYRGRGGRGGEGRGRGRG,transcriptional activation domain activity,25800
RDWRYVPEYVMRICRAHHADKPSVQMLVRKCFLEHIVNLTFTSFKALMSSKMS,transcriptional activation domain activity,42700
MGLNLLVCIILVLHYFSTLLISFYFLLTVHTFRHIFAHSHSPVCMCLIFLTII,transcriptional activation domain activity,50200
SGICRLTFSFSTLFFNPDPSFSFFLSFFFLFFFSFLLLSFLLNLFPFLDFFFF,transcriptional activation domain activity,24000
TLYWSYGMYIMYNGPHWLNTSYYWIDYPHILISRQTKTYYLMQLAFWVQQVYT,transcriptional activation domain activity,41600
MCRFFIFLLSFLYDISVPILVFWSVHSPLLGWLFPGGGYTWRCLFFLCFLVYM,transcriptional activation domain activity,51400
MAGQNNPFVGAVFSGLFLGYMILAAALSIFFLLYFNRVFASIVSWGIRAWTWR,transcriptional activation domain activity,31200
LCYQRMLLRVLLSFCDWIIKLESASQASKLGESMILARRSVDLLVIAIINVGT,transcriptional activation domain activity,40700
LGSCFLLSLVHPFFLLYYLYLRLLSLCFLYLRFVFFFCSPMSFFILLSIMSFL,transcriptional activation domain activity,60100
GLGKEGESYIVAMGAVSGGIIIYRRIEGGAGLVEVVRNSTAVARTTAVMIALE,transcriptional activation domain activity,42400
IGWFFPFWIVLLLPLDMASSLYEGCDMLCRRPFTWVSQSFLYIAWRTIYWTSF,transcriptional activation domain activity,59000
ENVRGIMTENIERVLERGERIDLLVDKTGRLNVNAGEFRRRSRGLRRRMWWKN,transcriptional activation domain activity,37700
RELEKREREREEREREERERELEKREREREQRGRELEKRERRGRRGSESWRRG,transcriptional activation domain activity,26100
PQRLDMIHFPLIYVGCVGVLLFNPFKIFFGSARMYFLNTMWRLAFSGFYHVEF,transcriptional activation domain activity,40000
CQRQWADRVQMTLRQMYDLLLIEITRPRYSVFLTSGHSMEEMASVFRLIACIA,transcriptional activation domain activity,44400
DGKTFDQLLRLKRLLVMHKGNLQSMWCVALMLELWHTKWTELSRLIQQHWGTG,transcriptional activation domain activity,74200
EGSEEKKERSRRHGDSDRRERRRHRSGSRSRDHDRDRERRHRRHRRSRSRDKE,transcriptional activation domain activity,13400
RFMVVIVSLFPRLNYFMDAVGHVLSVYYFNHLACQWITTAITSLAIVLFALRT,transcriptional activation domain activity,53900
KAGEAKTATSKGAGDEEEGTQKKKGTSSRKKATGTMGNGEVEIGNAGSSEKKK,transcriptional activation domain activity,36200
GAVARAAHAAAPAGVRAAAPAPAGVHALAPAGAHALVHAPARAGPARALVLAG,transcriptional activation domain activity,48800
NVQPTANAASANAAAAAAAAASNSYAIPENELLDEDTMNFISSLKNDLSNISN,transcriptional activation domain activity,59700
MYGLVFLLPLFCSLLLFLFCFCCLSPRPTWGLFVSIELFLQARDGLVNWLLAF,transcriptional activation domain activity,50100
LLVLYGLTWAFNLISCMLISTNNGNYISCILGLFNCVFVYTLTKMILYLYFIE,transcriptional activation domain activity,57000
FGNPPLIWFFWALFSPLFLFFFFFPIFFLSFPFFSFSFLFSFFVLLGVLKAYL,transcriptional activation domain activity,22100
PSFLWWLPLVLFVMATGIFVILSFLLFLIIHGLYYIVPLWQKCGSIHVCVSVL,transcriptional activation domain activity,52700
GILPPLLLAIVFGVLPFILRGLAWYECVPRYSLMSISVYRRFYLFLLIHGFLI,transcriptional activation domain activity,51900
AIMIMCLLLFENEFLNIVAISFTALVLNELIMVALEITTWHIYMILAEIVTLF,transcriptional activation domain activity,55800
MEVRQRKPGSGRPKGSKNKAKPPGTEPRPRKPGSGRPKGSKNKTTLAAAAAAA,transcriptional activation domain activity,30900
EIPIQLGCIHLHSLWMTYALLYQLIYPMMMIYNLVNCIYFGSGLQIAWWMFSI,transcriptional activation domain activity,44200
EEEKPKEEKPKEEKPEEEKPEEQKPEEEKPKEKPEEQKPEAPAPTPAPEPAPE,transcriptional activation domain activity,23200
RKDRKDRTRKERRDRHDDGRRHRHRRSSRSRSRDRRDRKHDRSRSRDRRKDGD,transcriptional activation domain activity,9360
PVKPASKKPAEKAKEKAKEAPKEKAKAKEPAKAKEDKPKAKPASKKAAAKPAA,transcriptional activation domain activity,34700
RLVYLMAKNKFGADAQQEFIGDYFRTDSATFRDVRVLFGLLSRSWFGRVWCIQ,transcriptional activation domain activity,52200
SADTQKEEGKRAKVEKNRRGKRDGHKAGRFSGGRRKERGEASTQAGAAAAGAN,transcriptional activation domain activity,37500
MFCFFEFLFFYKEDLAAYALCSCSQLPASFFLFLFPSPLWLFFFFFIFCLTFM,transcriptional activation domain activity,38900
TTGGLFGGGAANTGTTGGFGSGGGFGSSTTGGGGLFGNAGNQPKPAGLFGSST,transcriptional activation domain activity,27700
